Publication PMC10602876, “Global profiling of ribosomal protein acetylation reveals essentiality of acetylation homeostasis in maintaining ribosome assembly and function” (Nucleic Acids Research, 2023)

B1: 50S large subunit ribosomal protein L7/L12, wild type, His-tagged (natural protein, S. Typhimurium, UniProt P0A299 1-121, looked up)
chain: MSITKDQIIEAVSAMSVMDVVELISAMEEKFGVSAAAAVAVAAGPAEAAEEKTEFDVILKAAGANKVAVIKAVRGATGLGLKEAKDLVESAPAALKEGVSKDDAEALKKSLEEAGAEVEVK
notes: 50S ribosomal protein L7/L12 (RplL), S. Typhimurium strain 14028S, gene amplified from the genomic DNA; The r-protein genes seem to have been cloned into pSUMO3; also called WT L7/L12; RplL; source: E. coli BL21, purified (Ni-NTA); not shown: His6, C-terminal, kept
B2: L7/L12 K65Q, His-tagged (natural protein)
chain: MSITKDQIIEAVSAMSVMDVVELISAMEEKFGVSAAAAVAVAAGPAEAAEEKTEFDVILKAAGANQVAVIKAVRGATGLGLKEAKDLVESAPAALKEGVSKDDAEALKKSLEEAGAEVEVK
notes: 50S ribosomal protein L7/L12 (RplL), S. Typhimurium strain 14028S; Acetylation mimic; same construct as m2 with the substitution; source: E. coli, purified (Ni-NTA); not shown: His6, C-terminal, kept
B3: L7/L12 K65R, His-tagged (natural protein)
chain: MSITKDQIIEAVSAMSVMDVVELISAMEEKFGVSAAAAVAVAAGPAEAAEEKTEFDVILKAAGANRVAVIKAVRGATGLGLKEAKDLVESAPAALKEGVSKDDAEALKKSLEEAGAEVEVK
notes: 50S ribosomal protein L7/L12 (RplL), S. Typhimurium strain 14028S; Mimic of the non-acetylated form; same construct as m2 with the substitution; source: E. coli, purified (Ni-NTA); not shown: His6, C-terminal, kept
B4: L7/L12 K70Q, His-tagged (natural protein)
chain: MSITKDQIIEAVSAMSVMDVVELISAMEEKFGVSAAAAVAVAAGPAEAAEEKTEFDVILKAAGANKVAVIQAVRGATGLGLKEAKDLVESAPAALKEGVSKDDAEALKKSLEEAGAEVEVK
notes: as for B2
B5: L7/L12 K70R, His-tagged (natural protein)
chain: MSITKDQIIEAVSAMSVMDVVELISAMEEKFGVSAAAAVAVAAGPAEAAEEKTEFDVILKAAGANKVAVIRAVRGATGLGLKEAKDLVESAPAALKEGVSKDDAEALKKSLEEAGAEVEVK
notes: as for B3

What follows are binders tested against T1, Elongation factor EF-Tu, His-tagged, biotinylated (S. Typhimurium, UniProt P0A1H5 1-394, biotin (site not stated)) (assay: BLI; printed as thin-film interferometry (TFI), GatorPrime label-free analyzer; biotinylated EF-Tu loaded on the sensors; L7/L12 or mutants in solution at 12.5, 6.25, 3.125, 1.563, 0.781 and 0.391 uM in binding buffer at pH 7.4). Details: both partners purified.
T1 construct: Elongation factor Tu (tufA), S. Typhimurium strain 14028S, gene amplified from the genomic DNA; The methods sentence on vectors (pSUMO3 and pQE80, 'respectively') leaves open which vector was used; probably pQE80 with a C-terminal 6xHis; also called tufA; source: E. coli BL21, purified (Ni-NTA); biotinylated, PD-10 column; not shown: His6, C-terminal, kept
T1 sequence (P0A1H5 whole entry): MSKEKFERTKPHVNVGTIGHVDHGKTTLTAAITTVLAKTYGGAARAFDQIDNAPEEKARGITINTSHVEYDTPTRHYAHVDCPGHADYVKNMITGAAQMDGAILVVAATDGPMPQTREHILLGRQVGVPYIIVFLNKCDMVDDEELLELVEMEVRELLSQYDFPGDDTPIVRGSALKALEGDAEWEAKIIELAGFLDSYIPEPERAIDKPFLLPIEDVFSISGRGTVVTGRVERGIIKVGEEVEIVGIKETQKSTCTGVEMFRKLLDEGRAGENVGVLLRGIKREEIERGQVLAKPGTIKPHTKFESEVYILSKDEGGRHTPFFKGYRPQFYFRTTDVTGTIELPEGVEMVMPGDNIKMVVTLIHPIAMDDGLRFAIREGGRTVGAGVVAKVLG

First: B1
Second: B2
The Kd of the first is 2.1-fold lower: 740 nM for the first, 1520 nM for the second. The first binds more tightly here.

Going from B3 to B4, the Kd falls from 2690 nM to 1310 nM (2.1-fold). The second binds more tightly here.

Binder B5 has a Kd of 1810 nM.
